# Results from the supplement of paper PMC7877785.
# ± gives the uncertainty stated by the source.
# Experiment: self-splicing fitness, log relative to wild type (ln ratio); higher = more splicing; Tetrahymena group I intron in knt gene, E. coli kanamycin selection, DiMSum; sequences stand for … in CUCUCU…GGAGGGAAAAGUUAUCAGGCAUGCACCUGGUAGCUAGUCUUUAAACCAAUAGAUUGCAUCGGUUUAAAAGGCAAGACCGUCAAAUUGCGGGAAAGGGGUCAACAGCCGUUCAGUACCAAGUCUCAGGGGAAACUUUGAGAUGGCCUUGCAAAGGGUAUGGUAAUAAGCUGACGGACAUGGUCCUAACCACGCAGCCAAGUCCUAAGUCAACAGAUCUUCUGUUGAUAUGGAUGCAGUUCACAGACUAAAUGUCGGUCGGGGAAGAUGUAUUCUUCUCAUAAGAUAUAGUCGGACCUCUCCUUAAUGGGAGCUAGCGGAUGAAGUGAUGCAACACUGGAGCCGCUGGGAACUAAUUUGUAUGCGAAAGUAUAUUGAUUAGUUUUGGAGUACUCGUGGUCG
# In short: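 A randomised library covering all eight P1ex-region intron nucleotides was built with the intron in the knt kanamycin-resistance gene on pET-22b(+) and held in E. coli BL21(DE3). Cells were grown overnight at 37°C or 30°C on LB agar, with or without 25 μg/mL kanamycin, plus 100 μg/mL carbenicillin, 50 μM IPTG and 0.2% rhamnose, and pooled colonies were amplicon-sequenced on an Illumina HiSeq 2500. DiMSum fitness is the error-weighted combination of wild-type-normalised replicate fold changes, kanamycin versus none.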
Sequence,self-splicing fitness (ln) (30 °C),self-splicing fitness (ln) (37 °C)
GGCCAGCAAUAUUACGUUUG,-3.15 ± 0.14,-2.4 ± 0.18
GGCGAGCAAUAUUACGAAAA,,-2.97 ± 0.47
GGCGAGCAAUAUUACGACAU,-0.665 ± 0.015,-0.155 ± 0.034
GGCGAGCAAUAUUACGACUG,-0.978 ± 0.24,-0.589 ± 0.29
GGCGAGCAAUAUUACGAGCG,-0.88 ± 0.14,-0.433 ± 0.17
GGCGAGCAAUAUUACGAUCG,-2.53 ± 0.21,-0.978 ± 0.21
GGCGAGCAAUAUUACGCGCA,-0.241 ± 0.17,0.253 ± 0.22
GGCGAGCAAUAUUACGCGUG,-1.15 ± 0.19,-0.666 ± 0.2
GGCGAGCAAUAUUACGCUGA,-1.82 ± 0.2,-2.12 ± 0.18
GGCGAGCAAUAUUACGGAGA,,-1.69 ± 0.39
GGCGAGCAAUAUUACGGGAC,-2.22 ± 0.2,-1.1 ± 0.27
GGCGAGCAAUAUUACGGGAU,,-2.21 ± 0.47
GGCGAGCAAUAUUACGUGAA,-2.49 ± 0.12,-0.0823 ± 0.13
GGCGAGCAAUAUUACGUGCG,-1.65 ± 0.11,-0.955 ± 0.1
GGCGAGCAAUAUUACGUUUA,-1.4 ± 0.087,-0.372 ± 0.11
GGCUAGCAAUAUUACGACCC,-1.79 ± 0.36,-0.966 ± 0.37
GGCUAGCAAUAUUACGACUC,0.93 ± 0.14,0.604 ± 0.26
GGCUAGCAAUAUUACGACUG,-1.54 ± 0.16,-0.524 ± 0.22
GGCUAGCAAUAUUACGAUUA,-0.803 ± 0.085,-0.572 ± 0.079
GGCUAGCAAUAUUACGCACC,-1.61 ± 0.24,-1.78 ± 0.26
GGCUAGCAAUAUUACGCAUA,0.253 ± 0.13,0.0704 ± 0.15
GGCUAGCAAUAUUACGCCAU,-2.23 ± 0.22,

Sequence,self-splicing fitness (ln) (30 °C),self-splicing fitness (ln) (37 °C)
GGCUAGCAAUAUUACGCGGU,-2.92 ± 0.38,-3.63 ± 0.24
GGCUAGCAAUAUUACGCUCG,-2.15 ± 0.24,-0.647 ± 0.19
GGCUAGCAAUAUUACGGAGU,-2.86 ± 0.1,-2.02 ± 0.13
GGCUAGCAAUAUUACGGCAU,-0.0766 ± 0.11,0.833 ± 0.13
GGCUAGCAAUAUUACGGCCU,-3.3 ± 0.35,
GGCUAGCAAUAUUACGGUAA,-0.655 ± 0.15,-0.0661 ± 0.14
GGCUAGCAAUAUUACGGUUU,0.173 ± 0.078,0.305 ± 0.09
GGCUAGCAAUAUUACGUCAA,-1.34 ± 0.11,-0.747 ± 0.12
GGCUAGCAAUAUUACGUCCA,-1.3 ± 0.18,-1.05 ± 0.2
GGCUAGCAAUAUUACGUCCG,-2.88 ± 0.3,-0.381 ± 0.17
GGCUAGCAAUAUUACGUUUC,-0.818 ± 0.11,-0.182 ± 0.12
GGGAAGCAAUAUUACGAAUA,,-1 ± 0.2
GGGAAGCAAUAUUACGACUU,0.323 ± 0.11,-0.202 ± 0.15
GGGAAGCAAUAUUACGAGAC,-1.98 ± 0.26,-2.1 ± 0.34
GGGAAGCAAUAUUACGAGCA,-2.18 ± 0.32,-0.522 ± 0.18
GGGAAGCAAUAUUACGAUCG,0.00926 ± 0.13,-0.00218 ± 0.13
GGGAAGCAAUAUUACGAUUU,-0.13 ± 0.1,-0.16 ± 0.12
GGGAAGCAAUAUUACGCGUG,-1.02 ± 0.076,-0.978 ± 0.096
GGGAAGCAAUAUUACGGACA,-0.34 ± 0.087,-0.0303 ± 0.13
GGGAAGCAAUAUUACGGGGC,-2.85 ± 0.34,
GGGAAGCAAUAUUACGGUAU,-2.78 ± 0.18,-1.63 ± 0.15
GGGAAGCAAUAUUACGGUUU,-1.89 ± 0.099,-1.07 ± 0.1
